Laboratory results from publication PMC11882435.

Target: RsmA (Pseudomonas aeruginosa) (UniProt O69078)
Experiment: EMSA
Conditions: Filter binding: 10 mM Tris-HCl pH 7.5, 100 mM KCl, 10 mM MgCl2, 10 mM DTT, 10 ug/mL heparin, RNase inhibitor, 0.5 nM RNA, 37 C 30 min; Hill coefficient 2

Chain of RsmA (Pseudomonas aeruginosa) (O69078 whole entry): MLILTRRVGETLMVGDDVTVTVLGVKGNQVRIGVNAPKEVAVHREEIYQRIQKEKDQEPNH

rhlI leader gave a Kd of 20.9 nM.
